Assay results taken from US20110217291A1 (ZymoGenetics, published 2011).

Legend:
Test in all cases: cell-based or functional assay
[1] = molecular target: rabbit polyclonal anti-OVA antibodies
[2] = molecular target: rabbit polyclonal anti-OVA antibodies; remark: listed apart in the source
[3] = molecular target: rabbit polyclonal anti-OVA antibodies; remark: listed apart in the source
[4] = molecular target: rabbit polyclonal anti-OVA antibodies; remark: listed apart in the source

Binder	IC50 (read off the curve); TNF-α secretion by MC/9 mast cells stimulated with anti-OVA/OVA immune complexes [1] [pmol]	IC50 (read off the curve); IL-6 secretion by MC/9 mast cells stimulated with anti-OVA/OVA immune complexes [2] [pmol]	IC50 (read off the curve); MCP-1 secretion by MC/9 mast cells stimulated with anti-OVA/OVA immune complexes [3] [pmol]	IC50 (read off the curve); IL-13 secretion by MC/9 mast cells stimulated with anti-OVA/OVA immune complexes [4] [pmol]
FcγRIIA/RIA-CH6 (soluble hybrid receptor: first Ig domain of FcγRIIA followed by second and third Ig domains of FcγRIA, C-terminal six His tag) (receptor) AAPPKAVLKLEPPWINVLQEDSVTLTCQGARSPESDSIQWFHNGNLIPTHTQPSYRFKANNNDSGEYTCQTGQTSLSDPVHLTVLSEWLLLQVSSRVFTEGEPLALRCHAWKDKLVYNVLYYRNGKAFKFFHWNSNLTILKTNISHNGTYHCSGMGKHRYTSAGISVTVKELFPAPVLNASVTSPLLEGNLVTLSCETKLLLQRPGLQLYFSFYMGSKTLRGRNTSSEYQILTARREDSGLYWCEAATEDGNVLKRSPELELQVLGGSGGHHHHHH	~2	~2	~2	~2
FcγRIIIA/RIA-CH6 (soluble hybrid receptor: first Ig domain of FcγRIIIA followed by second and third Ig domains of FcγRIA, C-terminal six His tag) (receptor) EDLPKAVVFLEPQWYRVLEKDSVTLKCQGAYSPEDNSTQWFHNESLISSQASSYFIDAATVDDSGEYRCQTNLSTLSDPVQLEVHIGWLLLQVSSRVFTEGEPLALRCHAWKDKLVYNVLYYRNGKAFKFFHWNSNLTILKTNISHNGTYHCSGMGKHRYTSAGISVTVKELFPAPVLNASVTSPLLEGNLVTLSCETKLLLQRPGLQLYFSFYMGSKTLRGRNTSSEYQILTARREDSGLYWCEAATEDGNVLKRSPELELQVLGGSGGHHHHHH	~1	~2	~2	~1
untagged recombinant soluble human FcγRIA (receptor, N-terminal pyro-glutamic acid, converted from the glutamine at position 16) QVDTTKAVITLQPPWVSVFQEETVTLHCEVLHLPGSSSTQWFLNGTATQTSTPSYRITSASVNDSGEYRCQRGLSGRSDPIQLEIHRGWLLLQVSSRVFTEGEPLALRCHAWKDKLVYNVLYYRNGKAFKFFHWNSNLTILKTNISHNGTYHCSGMGKHRYTSAGISVTVKELFPAPVLNASVTSPLLEGNLVTLSCETKLLLQRPGLQLYFSFYMGSKTLRGRNTSSEYQILTARREDSGLYWCEAATEDGNVLKRSPELELQVLG	~1	~1	~2	~1
